From PMC12216690, “MORC2 is a phosphorylation-dependent DNA compaction machine” (Nature Communications, 2024)

Target: the molecule itself
Assay: number and brightness analysis (fluorescence fluctuation spectroscopy); live MORC2 knockout HEK293T cells with low expression of MORC2-meGFP, nucleus, 37 degrees; without or with 0.5 µg/mL neocarzinostatin for 1 hour

B1: monomeric eGFP (meGFP)-tagged MORC2 (natural protein, human, UniProt Q9Y6X9 1-1032, looked up)
chain: MAFTNYSSLNRAQLTFEYLHTNSTTHEFLFGALAELVDNARDADATRIDIYAERREDLRGGFMLCFLDDGAGMDPSDAASVIQFGKSAKRTPESTQIGQYGNGLKSGSMRIGKDFILFTKKEDTMTCLFLSRTFHEEEGIDEVIVPLPTWNARTREPVTDNVEKFAIETELIYKYSPFRTEEEVMTQFMKIPGDSGTLVIIFNLKLMDNGEPELDIISNPRDIQMAETSPEGTKPERRSFRAYAAVLYIDPRMRIFIHGHKVQTKRLSCCLYKPRMYKYTSSRFKTRAEQEVKKAEHVARIAEEKAREAESKARTLEVRLGGDLTRDSRVMLRQVQNRAITLRREADVKKRIKEAKQRALKEPKELNFVFGVNIEHRDLDGMFIYNCSRLIKMYEKVGPQLEGGMACGGVVGVVDVPYLVLEPTHNKQDFADAKEYRHLLRAMGEHLAQYWKDIAIAQRGIIKFWDEFGYLSANWNQPPSSELRYKRRRAMEIPTTIQCDLCLKWRTLPFQLSSVEKDYPDTWVCSMNPDPEQDRCEASEQKQKVPLGTFRKDMKTQEEKQKQLTEKIRQQQEKLEALQKTTPIRSQADLKKLPLEVTTRPSTEEPVRRPQRPRSPPLPAVIRNAPSRPPSLPTPRPASQPRKAPVISSTPKLPALAAREEASTSRLLQPPEAPRKPANTLVKTASRPAPLVQQLSPSLLPNSKSPREVPSPKVIKTPVVKKTESPIKLSPATPSRKRSVAVSDEEEVEEEAERRKERCKRGRFVVKEEKKDSNELSDSAGEEDSADLKRAQKDKGLHVEVRVNREWYTGRVTAVEVGKHVVRWKVKFDYVPTDTTPRDRWVEKGSEDVRLMKPPSPEHQSLDTQQEGGEEEVGPVAQQAIAVAEPSTSECLRIEPDTTALSTNHETIDLLVQILRNCLRYFLPPSFPISKKQLSAMNSDELISFPLKEYFKQYEVGLQNLCNSYQSRADSRAKASEESLRTSERKLRETEEKLQKLRTNIVALLQKVQEDIDINTDDELDAYIEDLITKGD
notes: MORC2, human, UniProt Q9Y6X9; Probably the full-length cDNA; also called MORC2-meGFP; pBacMam-MORC2-meGFP-StrepII; source: expressed in MORC2 knockout HEK293T cells, in live cells
fold increase of dimers upon neocarzinostatin: ~2 fold
